Values of other authors as cited in paper PMC12537681.

Biological target: Spike glycoprotein trimer (Severe acute respiratory syndrome coronavirus 2) (UniProt P0DTC2)

For TLR4 (from UniProt O00206), the Kd is given as 300 nM.
